The results in this text go back to publication PMC4010391, “Mammalian TBX1 Preferentially Binds and Regulates Downstream Targets Via a Tandem T-site Repeat”.

This series addresses T1, GST-TBX1 T-box (Mus musculus, UniProt P70323 90-303).
T1 sequence: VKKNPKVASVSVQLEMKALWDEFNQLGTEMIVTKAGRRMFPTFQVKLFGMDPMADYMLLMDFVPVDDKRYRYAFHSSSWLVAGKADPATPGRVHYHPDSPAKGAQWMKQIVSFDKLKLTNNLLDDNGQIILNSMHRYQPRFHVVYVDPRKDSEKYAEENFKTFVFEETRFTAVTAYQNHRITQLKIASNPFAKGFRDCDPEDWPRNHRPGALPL
In words: EMSA; 6 h exposure; EMSA, 12.5 ul, GST-TBX1 5-25 ug, HEPES/MgCl2/KCl/DTT/EDTA/glycerol buffer (stock concentrations only, pH not given), 1 ug/ul poly(dI-dC), Ficoll, room temperature, 10 min + 10 min, 5% acrylamide gel. Particulars: protein: recombinant; tags: N-terminal GST (pGEX4t3); chain copies: 2; label: 5'-32P.

B1: Brachyury palindrome probe (Fig S1) (dsDNA)
DNA 1: CTAGATTTCACACCTAGGTGTGAAATCTAG
DNA 2: CTAGATTTCACACCTAGGTGTGAAATCTAG
B1: the binding result was “binds”.
